# Assay results reported in patent publication US20080044423A1 (AstraZeneca / MedImmune, published 2008).
# Several values for one entry are separate records, joined by “and”; a condition that tells them apart may be missing. Equal entries are not always repeated. Where two headings read alike, the source gives them in different places.
# T1: cynomolgus IL-17A (cynomolgus, UniProt Q16552 24-155 (human entry), limits assumed)
# T1 chain: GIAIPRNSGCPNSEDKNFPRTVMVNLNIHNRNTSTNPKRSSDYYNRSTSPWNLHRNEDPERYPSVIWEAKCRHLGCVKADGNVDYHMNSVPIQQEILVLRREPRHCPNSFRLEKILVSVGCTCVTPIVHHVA
# T2: human IL-17B (Peprotech) (human, UniProt Q9UHF5 21-180, limits assumed)
# T2 sequence (looked up): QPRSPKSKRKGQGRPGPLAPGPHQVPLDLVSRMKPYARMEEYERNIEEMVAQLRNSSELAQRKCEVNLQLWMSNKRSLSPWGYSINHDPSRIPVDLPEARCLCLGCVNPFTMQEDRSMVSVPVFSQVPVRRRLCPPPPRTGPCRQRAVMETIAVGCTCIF
# T3: human IL-17F (Peprotech) (human, UniProt Q96PD4 31-163, limits assumed)
# T3 sequence (looked up): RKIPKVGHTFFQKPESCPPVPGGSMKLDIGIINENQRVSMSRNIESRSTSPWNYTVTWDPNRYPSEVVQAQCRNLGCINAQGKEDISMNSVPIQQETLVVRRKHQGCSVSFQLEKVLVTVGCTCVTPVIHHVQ
# T4: murine IL-17A (R & D Systems) (murine, UniProt Q62386 22-158, limits assumed)
# T4 sequence (looked up): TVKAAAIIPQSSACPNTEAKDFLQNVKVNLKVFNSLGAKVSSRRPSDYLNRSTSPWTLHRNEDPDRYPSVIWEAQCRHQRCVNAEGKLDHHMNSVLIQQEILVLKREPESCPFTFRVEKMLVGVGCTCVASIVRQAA
# T5: human IL-17E (R & D Systems) (human, UniProt Q9H293 33-177)
# T5 sequence (looked up): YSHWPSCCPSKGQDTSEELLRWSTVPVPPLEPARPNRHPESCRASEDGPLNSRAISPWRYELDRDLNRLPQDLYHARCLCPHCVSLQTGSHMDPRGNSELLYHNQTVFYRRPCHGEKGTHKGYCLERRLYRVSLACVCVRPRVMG
# T6: human IL-17D (Peprotech) (human, UniProt Q8TAD2 18-202, limits assumed)
# T6 sequence (looked up): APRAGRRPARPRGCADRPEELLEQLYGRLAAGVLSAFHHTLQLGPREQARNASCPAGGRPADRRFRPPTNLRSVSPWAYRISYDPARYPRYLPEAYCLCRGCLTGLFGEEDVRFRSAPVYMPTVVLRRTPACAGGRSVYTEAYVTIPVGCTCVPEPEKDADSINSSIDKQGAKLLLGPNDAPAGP
# T7: human IL-17C (R & D Systems) (human, UniProt Q9P0M4 19-197)
# T7 sequence (looked up): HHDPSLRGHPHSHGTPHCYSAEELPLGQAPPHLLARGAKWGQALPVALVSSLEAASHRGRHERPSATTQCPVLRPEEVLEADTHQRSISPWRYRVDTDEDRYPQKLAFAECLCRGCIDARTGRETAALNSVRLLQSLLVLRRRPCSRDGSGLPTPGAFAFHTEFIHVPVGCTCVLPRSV
# Key:
# [1] = biological target: T8, human IL-17A, untagged, E. coli derived (in house or Peprotech) (human, UniProt Q16552 24-155); experiment: cell-based or functional assay
# [2] = biological target: T8, human IL-17A, untagged, E. coli derived …; experiment: cell-based or functional assay; remark: listed apart in the source
# [3] = biological target: T9, human IL-17A derived from the HEK-EBNA expression system (human, UniProt Q16552 24-155); experiment: cell-based or functional assay
# cynomolgus IL-17A [4] = biological target: T1, cynomolgus IL-17A; experiment: cell-based or functional assay
# human IL-17B (Peprotech) [5] = biological target: T2, human IL-17B (Peprotech); experiment: DELFIA epitope competition vs biotinylated human IL-17A on immobilised IgG
# human IL-17F (Peprotech) [6] = biological target: T3, human IL-17F (Peprotech); experiment: as above
# [7] = biological target: T4, murine IL-17A (R & D Systems); experiment: as above
# [8] = biological target: T5, human IL-17E (R & D Systems); experiment: as above
# human IL-17D (Peprotech) [9] = biological target: T6, human IL-17D (Peprotech); experiment: as above
# [10] = biological target: T7, human IL-17C (R & D Systems); experiment: as above
# [11] = biological target: human IL-17A (HT1080 assay of Example 1, source not stated) (human, UniProt Q16552 24-155); experiment: cell-based or functional assay
# cynomolgus IL-17A [12] = biological target: T1, cynomolgus IL-17A; experiment: cell-based or functional assay
# [13] = biological target: T8, human IL-17A, untagged, E. coli derived …; experiment: cell-based or functional assay; remark: listed apart in the source
# human IL-17B (Peprotech) [14] = biological target: T2, human IL-17B (Peprotech); experiment: HTRF epitope competition vs HIS FLAG IL-17A binding the IgG
# human IL-17F (Peprotech) [15] = biological target: T3, human IL-17F (Peprotech); experiment: as above
# [16] = biological target: T4, murine IL-17A (R & D Systems); experiment: as above
# [17] = biological target: T5, human IL-17E (R & D Systems); experiment: as above
# human IL-17D (Peprotech) [18] = biological target: T6, human IL-17D (Peprotech); experiment: as above
# [19] = biological target: T7, human IL-17C (R & D Systems); experiment: as above
# [20] = biological target: T9, human IL-17A derived from the HEK-EBNA …; experiment: cell-based or functional assay; remark: listed apart in the source
# [21] = biological target: T8, human IL-17A, untagged, E. coli derived …; experiment: cell-based or functional assay; remark: listed apart in the source
# [22] = biological target: T8, human IL-17A, untagged, E. coli derived …; experiment: cell-based or functional assay; remark: listed apart in the source
# [23] = biological target: T8, human IL-17A, untagged, E. coli derived …; experiment: cell-based or functional assay; remark: listed apart in the source
# [24] = biological target: native IL-17A derived from primary human T cells (human, UniProt Q16552 24-155, N-linked glycosylation); experiment: cell-based or functional assay
# [25] = biological target: T9, human IL-17A derived from the HEK-EBNA …; experiment: estimated from pA2 (Schild) analysis in the HT1080 IL-6 release assay
binder,measurement,setting,value
"Antibody 1 IgG1 (antibody, V domains shown, human IgG1, lambda; constant regions not in the listing; also called Antibody 01; TINA12 IgG1) VH: not shown VL: NFMLTQPHSVSESPGKTVTISCTRSSGSLANYYVQWYQQRPGSAPTIVIFANNQRPSGVPDRFSGSIDSSSNSASLTISRLKTEDEADYYCQSYDDSSVVFGGGTKLTVL","chondrocyte IL-8 release, geometric mean IC50 at 0.2 nM IL-17A",[1],18.1 nM
same,"chondrocyte IL-8 release, geometric mean IC50 at 2 nM IL-17A",[1],44.5 nM
same,"chondrocyte MMP13 release, IC50 at 2 nM IL-17A",[2],147 nM and > 400 nM
same,"chondrocyte MMP13 release, geometric mean IC50 at 0.2 nM IL-17A",[2],110 nM
same,"HT1080 IL-6 release, IgG IC50",[3],23 nM
same,Fold difference in cross-reactivity (IgG),cynomolgus IL-17A [4],6 fold
same,"HT1080 IL-6 release, IgG IC50",cynomolgus IL-17A [4],144 nM
same,binding result,human IL-17B (Peprotech) [5],no binding (tested: approx 100:1 over labelled IL-17A)
same,binding result,human IL-17F (Peprotech) [6],no binding (tested: approx 100:1 over labelled IL-17A)
same,binding result,[7],no binding (tested: approx 100:1 over labelled IL-17A)
same,binding result,[8],no binding (tested: approx 100:1 over labelled IL-17A)
same,binding result,human IL-17D (Peprotech) [9],no binding (tested: approx 100:1 over labelled IL-17A)
same,binding result,[10],no binding (tested: approx 100:1 over labelled IL-17A)
same,"HT1080 IL-6 release, IgG IC50",[11],22 nM
same,"HT1080 IL-6 release, IgG IC50",cynomolgus IL-17A [12],172 nM
same,"chondrocyte IL-6 release, geometric mean IC50 at 0.2 nM IL-17A",[13],29.9 nM
same,"chondrocyte IL-6 release, geometric mean IC50 at 2 nM IL-17A",[13],75.7 nM
"Antibody 2 IgG1 (antibody, V domains shown, human IgG1, lambda; constant regions not in the listing; also called Antibody 02) VH: not shown VL: NFMLTQPHSVSESPGKTVTISCTRSSGSLANYYVQWYQQRPGSSPTIVIFANNQRPSGVPDRFSGSIDSSSNSASLTISGLKTEDEADYYCQSYDPHSVVFGGGTKLTVL","chondrocyte IL-8 release, geometric mean IC50 at 0.2 nM IL-17A",[1],2.3 nM
same,"chondrocyte IL-8 release, geometric mean IC50 at 2 nM IL-17A",[1],7.91 nM
same,binding result,human IL-17B (Peprotech) [14],no binding
same,binding result,human IL-17F (Peprotech) [15],no binding
same,binding result,[16],no binding
same,binding result,[17],no binding
same,binding result,human IL-17D (Peprotech) [18],no binding
same,binding result,[19],no binding
same,"HT1080 synergised IL-6 release (125 pM human IL-17 + 25 pM human TNFα), IgG IC50",[20],0.41 nM
same,"chondrocyte IL-8 release, geometric mean IC50 at 0.2 nM IL-17A",[21],1.49 nM
same,"chondrocyte IL-8 release, geometric mean IC50 at 2 nM IL-17A",[21],7.18 nM
same,"cartilage explant synergised IL-6 response, Mean IC50",[22],3.39 nM
same,"HT1080 IL-6 release, IgG IC50",[3],1.5 nM
same,Fold difference in cross-reactivity (IgG),cynomolgus IL-17A [4],12 fold
same,"HT1080 IL-6 release, IgG IC50",cynomolgus IL-17A [4],18.3 nM
same,"chondrocyte IL-6 release, geometric mean IC50 at 0.2 nM IL-17A",[23],1.52 nM
same,"chondrocyte IL-6 release, geometric mean IC50 at 2 nM IL-17A",[23],5.51 nM
same,"T cell supernatant induced IL-6 production in HT1080 cells, IC50",[24],0.25 nM
same,Kd,[25],0.188 nM
